# Measurements: patent US20180015177A1 (Genentech, published 2018)
# Where “and” joins values, the source holds several entries; their conditions need not be identical. Equal entries are not always repeated.
# Biological target: T1, human Ly6E, N-terminal gD-tagged, stably expressed on PC3 cells (human, UniProt Q16553 21-101)
# T1 construct: GPI-linked protein on cells; also called hu Ly6E; human Ly6E transfected PC3 cells; not shown: N-terminal gD tag of the retroviral vector
# T1 sequence: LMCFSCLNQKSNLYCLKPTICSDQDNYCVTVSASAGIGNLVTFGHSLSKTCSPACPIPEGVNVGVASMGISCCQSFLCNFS
# Experiment: cell-based competitive binding on human Ly6E PC3 cells; competitor mouse 9B12
# Description: (§1) Cell-based Ly6E competitive binding assay—Cultured human Ly6E transfected PC3 cells were harvested with 5 mM EDTA containing PBS. Cells were washed with PBS and added onto a 384-well high binding plate (Meso Scale Discovery Technology (MSD); Gaithersburg, Md.). The plate was kept at room temperature for 1 hr to allow cells to adhere to the plate as described (See Lu, Y., Wong, W. L. & Meng, Y. G. A high throughput electrochemiluminescent cell-binding assay for therapeutic anti-CD20 antibody selection. Journal of Immunological Methods 314, 74-79 (2006)). The plate with cells was blocked with fetal bovine serum containing PBS for 1 hr and then cooled on ice. Serially diluted antibody variant samples were mixed with equal volume of fixed concentration of mouse 9B12 Ab. The mixtures were added onto the plates and incubated at 4° C. with gentle shaking for 1 hr.
# (§2) The plate was then washed with cold PBS and an anti-mouse IgG Fc specific Ab (Jackson ImmunoReserach; West Grove, Pa.) labeled with sulfo-ruthenium tag was added to the plate as the detection reagent. The plate was incubated at 4° C. with gentle shaking for 1 hr. After incubation the plate was washed again, and MSD read buffer (MSD; Gaithersburg, Md.) was added onto the wells. The plate was read with a MSD SectorÒ imager 6000. The data was graphed and analyzed using KaleidaGraph software (Synergy Software; Reading, Pa.) to determine IC₅₀ values.
row,Binder,IC50
1,"humanized 9B12 variant v2 (antibody, V domains shown, IgG. k1 graft / VH2 graft + 24 + 49; Residue changes derived against v12) VH: EVQLVESGPALVKPTQTLTLTCTVSGFSLTGYSVNWIRQPPGKALEWLGMIWGDGSTDYNSALKSRLTISKDTSKNQVVLTMTNMDPVDTATYYCARDYYFNYASWFAYWGQGTLVTVSS VL: DIQMTQSPSSLSASVGDRVTITCSASQGISNYLNWYQQKPGKAPKLLIYYTSNLHSGVPSRFSGSGSGTDFTLTISSLQPEDFATYYCQQYSELPWTFGQGTKVEIK",28 nM and 37 nM
2,"humanized 9B12 variant v7 (antibody, V domains shown, IgG. k1 graft 43+44 / VH2 graft + 24 + 49; Residue change derived) VH: EVQLVESGPALVKPTQTLTLTCTVSGFSLTGYSVNWIRQPPGKALEWLGMIWGDGSTDYNSALKSRLTISKDTSKNQVVLTMTNMDPVDTATYYCARDYYFNYASWFAYWGQGTLVTVSS VL: DIQMTQSPSSLSASVGDRVTITCSASQGISNYLNWYQQKPGKTVKLLIYYTSNLHSGVPSRFSGSGSGTDFTLTISSLQPEDFATYYCQQYSELPWTFGQGTKVEIK",24 nM and 36 nM
3,"humanized 9B12 variant v16 (antibody, V domains shown, IgG. k1 graft 43+44+71 / VH2 graft + 24 + 37 + 49; Residue change derived) VH: EVQLVESGPALVKPTQTLTLTCTVSGFSLTGYSVNWVRQPPGKALEWLGMIWGDGSTDYNSALKSRLTISKDTSKNQVVLTMTNMDPVDTATYYCARDYYFNYASWFAYWGQGTLVTVSS VL: DIQMTQSPSSLSASVGDRVTITCSASQGISNYLNWYQQKPGKTVKLLIYYTSNLHSGVPSRFSGSGSGTDYTLTISSLQPEDFATYYCQQYSELPWTFGQGTKVEIK",27 nM
4,"humanized 9B12 variant v17 (antibody, V domains shown, IgG. k1 graft 43+44+71 / VH2 graft + 24 + 49 + 73; Residue change derived) VH: EVQLVESGPALVKPTQTLTLTCTVSGFSLTGYSVNWIRQPPGKALEWLGMIWGDGSTDYNSALKSRLTISKDNSKNQVVLTMTNMDPVDTATYYCARDYYFNYASWFAYWGQGTLVTVSS VL: DIQMTQSPSSLSASVGDRVTITCSASQGISNYLNWYQQKPGKTVKLLIYYTSNLHSGVPSRFSGSGSGTDYTLTISSLQPEDFATYYCQQYSELPWTFGQGTKVEIK",29 nM
5,"humanized 9B12 variant v18 (antibody, V domains shown, IgG. k1 graft 43+44+71 / VH2 graft + 24 + 49 + 73 + 76; Residue changes derived) VH: EVQLVESGPALVKPTQTLTLTCTVSGFSLTGYSVNWIRQPPGKALEWLGMIWGDGSTDYNSALKSRLTISKDNSKSQVVLTMTNMDPVDTATYYCARDYYFNYASWFAYWGQGTLVTVSS VL: DIQMTQSPSSLSASVGDRVTITCSASQGISNYLNWYQQKPGKTVKLLIYYTSNLHSGVPSRFSGSGSGTDYTLTISSLQPEDFATYYCQQYSELPWTFGQGTKVEIK",22 nM
6,"humanized 9B12 variant v19 (antibody, V domains shown, IgG. k1 graft 43+44+71 / VH2 graft + 24 + 37 + 49 + 73 + 76; Residue changes derived) VH: EVQLVESGPALVKPTQTLTLTCTVSGFSLTGYSVNWVRQPPGKALEWLGMIWGDGSTDYNSALKSRLTISKDNSKSQVVLTMTNMDPVDTATYYCARDYYFNYASWFAYWGQGTLVTVSS VL: DIQMTQSPSSLSASVGDRVTITCSASQGISNYLNWYQQKPGKTVKLLIYYTSNLHSGVPSRFSGSGSGTDYTLTISSLQPEDFATYYCQQYSELPWTFGQGTKVEIK",28 nM
7,"humanized 9B12 variant v21 (antibody, V domains shown, IgG. k1 graft + 71 / VH2 graft + 24 + 37 + 49; Residue changes derived) VH: EVQLVESGPALVKPTQTLTLTCTVSGFSLTGYSVNWVRQPPGKALEWLGMIWGDGSTDYNSALKSRLTISKDTSKNQVVLTMTNMDPVDTATYYCARDYYFNYASWFAYWGQGTLVTVSS VL: DIQMTQSPSSLSASVGDRVTITCSASQGISNYLNWYQQKPGKAPKLLIYYTSNLHSGVPSRFSGSGSGTDYTLTISSLQPEDFATYYCQQYSELPWTFGQGTKVEIK",82 nM
8,"humanized 9B12 variant v22 (antibody, V domains shown, IgG. k1 graft + 71 / VH2 graft + 24 + 49 + 73; Residue changes derived) VH: EVQLVESGPALVKPTQTLTLTCTVSGFSLTGYSVNWIRQPPGKALEWLGMIWGDGSTDYNSALKSRLTISKDNSKNQVVLTMTNMDPVDTATYYCARDYYFNYASWFAYWGQGTLVTVSS VL: DIQMTQSPSSLSASVGDRVTITCSASQGISNYLNWYQQKPGKAPKLLIYYTSNLHSGVPSRFSGSGSGTDYTLTISSLQPEDFATYYCQQYSELPWTFGQGTKVEIK",59 nM
9,"humanized 9B12 variant v23 (antibody, V domains shown, IgG. k1 graft + 71 / VH2 graft + 24 + 49 + 73 + 76; Residue changes derived) VH: EVQLVESGPALVKPTQTLTLTCTVSGFSLTGYSVNWIRQPPGKALEWLGMIWGDGSTDYNSALKSRLTISKDNSKSQVVLTMTNMDPVDTATYYCARDYYFNYASWFAYWGQGTLVTVSS VL: DIQMTQSPSSLSASVGDRVTITCSASQGISNYLNWYQQKPGKAPKLLIYYTSNLHSGVPSRFSGSGSGTDYTLTISSLQPEDFATYYCQQYSELPWTFGQGTKVEIK",54 nM
10,"humanized 9B12 variant v24 (antibody, V domains shown, IgG. k1 graft + 71 / VH2 graft + 24 + 37 + 49 + 73 + 76; Residue changes derived) VH: EVQLVESGPALVKPTQTLTLTCTVSGFSLTGYSVNWVRQPPGKALEWLGMIWGDGSTDYNSALKSRLTISKDNSKSQVVLTMTNMDPVDTATYYCARDYYFNYASWFAYWGQGTLVTVSS VL: DIQMTQSPSSLSASVGDRVTITCSASQGISNYLNWYQQKPGKAPKLLIYYTSNLHSGVPSRFSGSGSGTDYTLTISSLQPEDFATYYCQQYSELPWTFGQGTKVEIK",53 nM
11,"humanized 9B12 variant v4 (antibody, V domains shown, IgG. k1 graft / VH3 graft + 24) VH: EVQLVESGGGLVQPGGSLRLSCAVSGFSLTGYSVNWVRQAPGKGLEWVGMIWGDGSTDYNSALKSRFTISRDNSKNTLYLQMNSLRAEDTAVYYCARDYYFNYASWFAYWGQGTLVTVSS VL: DIQMTQSPSSLSASVGDRVTITCSASQGISNYLNWYQQKPGKAPKLLIYYTSNLHSGVPSRFSGSGSGTDFTLTISSLQPEDFATYYCQQYSELPWTFGQGTKVEIK",98 nM and 70 nM
12,"humanized 9B12 variant v5 (antibody, V domains shown, IgG. k1 graft / VH3 graft + 71 + 78; Residue changes derived) VH: EVQLVESGGGLVQPGGSLRLSCAASGFSLTGYSVNWVRQAPGKGLEWVGMIWGDGSTDYNSALKSRFTISKDNSKNTVYLQMNSLRAEDTAVYYCARDYYFNYASWFAYWGQGTLVTVSS VL: DIQMTQSPSSLSASVGDRVTITCSASQGISNYLNWYQQKPGKAPKLLIYYTSNLHSGVPSRFSGSGSGTDFTLTISSLQPEDFATYYCQQYSELPWTFGQGTKVEIK",70 nM
13,"humanized 9B12 variant v9 (antibody, V domains shown, IgG. k1 graft 43+44 / VH3 graft + 24; Residue changes derived) VH: EVQLVESGGGLVQPGGSLRLSCAVSGFSLTGYSVNWVRQAPGKGLEWVGMIWGDGSTDYNSALKSRFTISRDNSKNTLYLQMNSLRAEDTAVYYCARDYYFNYASWFAYWGQGTLVTVSS VL: DIQMTQSPSSLSASVGDRVTITCSASQGISNYLNWYQQKPGKTVKLLIYYTSNLHSGVPSRFSGSGSGTDFTLTISSLQPEDFATYYCQQYSELPWTFGQGTKVEIK",34 nM and 44 nM
14,"humanized 9B12 variant v10 (antibody, V domains shown, IgG. k1 graft 43+44 / VH3 graft + 71 + 78; Residue changes derived) VH: EVQLVESGGGLVQPGGSLRLSCAASGFSLTGYSVNWVRQAPGKGLEWVGMIWGDGSTDYNSALKSRFTISKDNSKNTVYLQMNSLRAEDTAVYYCARDYYFNYASWFAYWGQGTLVTVSS VL: DIQMTQSPSSLSASVGDRVTITCSASQGISNYLNWYQQKPGKTVKLLIYYTSNLHSGVPSRFSGSGSGTDFTLTISSLQPEDFATYYCQQYSELPWTFGQGTKVEIK",61 nM
15,"humanized 9B12 variant v14 (antibody, V domains shown, IgG. k1 graft 43+44+71 / VH3 graft + 24; Residue change derived) VH: EVQLVESGGGLVQPGGSLRLSCAVSGFSLTGYSVNWVRQAPGKGLEWVGMIWGDGSTDYNSALKSRFTISRDNSKNTLYLQMNSLRAEDTAVYYCARDYYFNYASWFAYWGQGTLVTVSS VL: DIQMTQSPSSLSASVGDRVTITCSASQGISNYLNWYQQKPGKTVKLLIYYTSNLHSGVPSRFSGSGSGTDYTLTISSLQPEDFATYYCQQYSELPWTFGQGTKVEIK",39 nM and 56 nM
16,"humanized 9B12 variant v15 (antibody, V domains shown, IgG. k1 graft 43+44+71 / VH3 graft + 71 + 78; Residue changes derived) VH: EVQLVESGGGLVQPGGSLRLSCAASGFSLTGYSVNWVRQAPGKGLEWVGMIWGDGSTDYNSALKSRFTISKDNSKNTVYLQMNSLRAEDTAVYYCARDYYFNYASWFAYWGQGTLVTVSS VL: DIQMTQSPSSLSASVGDRVTITCSASQGISNYLNWYQQKPGKTVKLLIYYTSNLHSGVPSRFSGSGSGTDYTLTISSLQPEDFATYYCQQYSELPWTFGQGTKVEIK",42 nM and 52 nM
17,"humanized 9B12 variant v20 (antibody, V domains shown, IgG. k1 graft 43+44+71 / VH3 graft + 24 + 48 + 67 + 71 + 76 + 78; Residue changes derived) VH: EVQLVESGGGLVQPGGSLRLSCAVSGFSLTGYSVNWVRQAPGKGLEWLGMIWGDGSTDYNSALKSRLTISKDNSKSTVYLQMNSLRAEDTAVYYCARDYYFNYASWFAYWGQGTLVTVSS VL: DIQMTQSPSSLSASVGDRVTITCSASQGISNYLNWYQQKPGKTVKLLIYYTSNLHSGVPSRFSGSGSGTDYTLTISSLQPEDFATYYCQQYSELPWTFGQGTKVEIK",26 nM
18,"humanized 9B12 variant v25 (antibody, V domains shown, IgG. k1 graft + 71 / VH3 graft + 24 + 48 + 67 + 71 + 76 + 78; Residue changes derived) VH: EVQLVESGGGLVQPGGSLRLSCAVSGFSLTGYSVNWVRQAPGKGLEWLGMIWGDGSTDYNSALKSRLTISKDNSKSTVYLQMNSLRAEDTAVYYCARDYYFNYASWFAYWGQGTLVTVSS VL: DIQMTQSPSSLSASVGDRVTITCSASQGISNYLNWYQQKPGKAPKLLIYYTSNLHSGVPSRFSGSGSGTDYTLTISSLQPEDFATYYCQQYSELPWTFGQGTKVEIK",56 nM

# Biological target: T1, human Ly6E, N-terminal gD-tagged, …
# Experiment: cell-based Ly6E competitive binding assay on human Ly6E PC3 cells; competitor mouse 9B12
# Description: as §1, §2
row,Binder,binding result
1,"humanized 9B12 variant v1 (antibody, V domains shown, IgG. k1 graft / VH2 graft + 49) VH: EVQLVESGPALVKPTQTLTLTCTFSGFSLTGYSVNWIRQPPGKALEWLGMIWGDGSTDYNSALKSRLTISKDTSKNQVVLTMTNMDPVDTATYYCARDYYFNYASWFAYWGQGTLVTVSS VL: DIQMTQSPSSLSASVGDRVTITCSASQGISNYLNWYQQKPGKAPKLLIYYTSNLHSGVPSRFSGSGSGTDFTLTISSLQPEDFATYYCQQYSELPWTFGQGTKVEIK",no binding
